From article PMC8809517, “Cofactor-independent RNA editing by a synthetic S-type PPR protein” come the findings set out here.

The Kd is the constant that tells how readily two partners part at equilibrium.

Test in all cases: high-throughput RNA pulldown from lysate on Ni-NTA beads; HRP: 50 mM Tris pH 8, 150 mM NaCl, 1 mM beta-mercaptoethanol, 50 ug/ml BSA, 3 ug/ml yeast RNA, 0.5% heparin; ITC and FP: Tris pH 8, 200 mM KCl, 5% glycerol; MST: 50 mM Tris pH 8, 200 mM NaCl, 1 mM DTT, BSA, heparin, 0.05% Tween 20
Common to all, as to conditions: tags: N-terminal His-eGFP

Data set [1] has as its target T1, GFP-9S library array, motif 4 ND N98G;D124K (synthetic construct, N98G;D124K).
T1 chain: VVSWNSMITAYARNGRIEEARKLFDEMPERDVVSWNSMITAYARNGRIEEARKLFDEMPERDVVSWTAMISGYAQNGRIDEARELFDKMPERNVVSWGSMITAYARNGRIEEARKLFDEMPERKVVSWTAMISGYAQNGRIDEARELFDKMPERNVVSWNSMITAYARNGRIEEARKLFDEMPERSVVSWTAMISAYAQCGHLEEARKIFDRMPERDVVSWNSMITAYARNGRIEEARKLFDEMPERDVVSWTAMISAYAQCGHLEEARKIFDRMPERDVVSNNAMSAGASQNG

Data set [2] concerns the target T2, GFP-9S library array, motif 4 ND N98Q;D124Q (synthetic construct, N98Q;D124Q).
T2 chain: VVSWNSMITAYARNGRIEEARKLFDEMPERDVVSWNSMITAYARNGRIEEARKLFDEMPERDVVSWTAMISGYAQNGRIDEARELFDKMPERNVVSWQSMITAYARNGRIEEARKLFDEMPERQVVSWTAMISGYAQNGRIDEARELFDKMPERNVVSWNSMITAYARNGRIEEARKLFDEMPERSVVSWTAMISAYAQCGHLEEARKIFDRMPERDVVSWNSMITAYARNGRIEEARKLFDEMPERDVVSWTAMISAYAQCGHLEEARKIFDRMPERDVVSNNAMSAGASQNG

Data set [3] has as its target T3, GFP-9S library array, motif 4 ND D124L (synthetic construct, D124L).
T3 chain: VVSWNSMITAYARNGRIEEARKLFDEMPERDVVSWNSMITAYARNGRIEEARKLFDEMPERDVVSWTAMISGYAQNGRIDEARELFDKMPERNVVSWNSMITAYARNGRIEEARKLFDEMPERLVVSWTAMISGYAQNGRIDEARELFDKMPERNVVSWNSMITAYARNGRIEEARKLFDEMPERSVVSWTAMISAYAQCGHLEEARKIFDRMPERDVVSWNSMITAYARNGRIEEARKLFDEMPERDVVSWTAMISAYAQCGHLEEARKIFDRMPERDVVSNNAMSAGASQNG

In data set [4] the target is T4, GFP-9S library array, motif 4 ND N98S;D124P (synthetic construct, N98S;D124P).
T4 chain: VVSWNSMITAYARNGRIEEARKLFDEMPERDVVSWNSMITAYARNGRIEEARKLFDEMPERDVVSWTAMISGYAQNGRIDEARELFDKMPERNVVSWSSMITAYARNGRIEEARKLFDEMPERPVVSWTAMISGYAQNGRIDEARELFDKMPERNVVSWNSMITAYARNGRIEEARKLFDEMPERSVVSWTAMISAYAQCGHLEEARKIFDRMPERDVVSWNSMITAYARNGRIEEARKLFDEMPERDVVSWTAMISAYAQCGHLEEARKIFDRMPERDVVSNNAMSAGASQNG

The target of data set [5] is T5, GFP-9S library array, motif 4 ND N98Y;D124I (synthetic construct, N98Y;D124I).
T5 chain: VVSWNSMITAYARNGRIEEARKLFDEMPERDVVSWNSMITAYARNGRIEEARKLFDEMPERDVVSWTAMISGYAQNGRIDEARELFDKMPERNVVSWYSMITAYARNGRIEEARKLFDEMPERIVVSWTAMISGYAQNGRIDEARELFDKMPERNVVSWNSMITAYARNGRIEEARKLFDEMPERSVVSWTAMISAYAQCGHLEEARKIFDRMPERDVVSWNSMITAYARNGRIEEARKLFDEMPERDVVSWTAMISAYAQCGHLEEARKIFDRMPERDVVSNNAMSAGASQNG

B1: Cy5-rpoA-G (ssRNA)
RNA: AUUAGACGUGA
Turning to B1, the dissociation constant Kd in data set [1] (label: 5' Cy5) was found to be 65.4 nM; in data set [2] (label: 5' Cy5), 95.5 nM; in data set [3] (label: 5' Cy5), 131 nM; in data set [4] (label: 5' Cy5) it was 121 nM; in data set [5] (label: 5' Cy5), 112 nM.

B2: IR-rpoA-A (ssRNA)
RNA: AUUAAACGUGA
For the molecule B2, the Kd in data set [1] (label: 5' IRDye 800CW) is 34.3 nM; in data set [2] (label: 5' IRDye 800CW), 167 nM; in data set [3] (label: 5' IRDye 800CW), 291 nM; in data set [4] (label: 5' IRDye 800CW), 224 nM; in data set [5] (label: 5' IRDye 800CW), 347 nM.

B3: Cy5-rpoA (ssRNA)
RNA: AUUACACGUGA
With B3, the Kd in data set [1] (label: 5' Cy5) was determined as 103 nM; in data set [2] (label: 5' Cy5), 118 nM; in data set [3] (label: 5' Cy5), 105 nM; in data set [4] (label: 5' Cy5), 122 nM; in data set [5] (label: 5' Cy5) it was 109 nM.

B4: IR-rpoA-U (ssRNA)
RNA: AUUAUACGUGA
With B4, the Kd in data set [1] (label: 5' IRDye 800CW) stood at 59.7 nM; in data set [2] (label: 5' IRDye 800CW), 123 nM; in data set [3] (label: 5' IRDye 800CW) it was 96.6 nM; in data set [4] (label: 5' IRDye 800CW), 253 nM; in data set [5] (label: 5' IRDye 800CW), 340 nM.
